Laboratory results as given in paper PMC6726571.
Where a chain is given by its changes, count along the chain named. Like-named read-outs stand apart in the source and are kept apart here.

T1: SRSF3 (SRp20), recombinant (UniProt P84103 1-164)
T1 sequence: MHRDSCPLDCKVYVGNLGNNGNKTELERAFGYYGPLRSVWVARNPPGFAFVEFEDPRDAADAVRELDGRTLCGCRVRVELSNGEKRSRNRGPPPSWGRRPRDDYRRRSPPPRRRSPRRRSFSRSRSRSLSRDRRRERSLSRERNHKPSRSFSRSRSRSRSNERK

B1: CPEB2 exon 4 WT RNA, biotinylated (ssRNA)
RNA: GUGAGAUCUAGUUUGCAGUUGCCAGCUUGGGGCUCAGAUUCACUCCAAGAUAGUUGGUGCACUGCAGCCGGAACAUCCAGAAUAGACCAG
B2: CPEB2 exon 4 MUT RNA (CAUCC to GAGUC), biotinylated (ssRNA)
RNA: B1 RNA with C74G, U76G, C77U

Tests used:
[1] = molecular target: T1, SRSF3 (SRp20), recombinant; assay: pull-down
[2] = molecular target: T1, SRSF3 (SRp20), recombinant; assay: pull-down; remark: listed apart in the source

Binder	binding result [1]	binding result [2]
B1	binds	
B2		no binding
